Laboratory results: patent publication US20220298260A1 (MYTHIC THERAPEUTICS, published 2022)
Residue numbers refer to the chain shown, from its start.

B1: MYT4512 (antibody, V domains shown)
VH: EVQLVESGGGLVQPGGSLRLSCAASGFNIRTQSIHWVRQAPGKGLEWIGDIFPIDGITDYADSVKGRFTISADTSKNTAYLQMNSLRAEDTAVYYCARGSWSWPSGMDYYLDYWGQGTLVTVSS
VL: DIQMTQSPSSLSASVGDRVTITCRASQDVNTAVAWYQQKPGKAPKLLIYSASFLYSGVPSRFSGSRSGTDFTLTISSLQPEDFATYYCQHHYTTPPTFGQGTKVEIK
notes: IgG
B2: MYT4513 (antibody, V domains shown)
VH: B1 VH
VL: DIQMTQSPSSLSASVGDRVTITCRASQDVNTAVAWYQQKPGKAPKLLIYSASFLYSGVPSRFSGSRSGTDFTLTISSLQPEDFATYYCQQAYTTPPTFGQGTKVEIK
notes: IgG
B3: MYT4514 (antibody, V domains shown)
VH: B1 VH
VL: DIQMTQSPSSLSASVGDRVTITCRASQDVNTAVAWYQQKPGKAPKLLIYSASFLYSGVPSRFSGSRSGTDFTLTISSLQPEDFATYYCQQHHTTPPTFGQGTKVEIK
notes: IgG
B4: MYT4515 (antibody, V domains shown)
VH: B1 VH
VL: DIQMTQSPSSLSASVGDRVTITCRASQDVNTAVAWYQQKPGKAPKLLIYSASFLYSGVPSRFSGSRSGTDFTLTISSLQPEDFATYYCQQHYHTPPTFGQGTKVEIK
notes: IgG
B5: MYT4516 (antibody, V domains shown)
VH: B1 VH
VL: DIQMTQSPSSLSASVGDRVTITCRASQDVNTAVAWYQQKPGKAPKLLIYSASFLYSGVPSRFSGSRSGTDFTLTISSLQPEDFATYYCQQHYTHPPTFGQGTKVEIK
notes: IgG
B6: MYT4517 (antibody, V domains shown)
VH: B1 VH
VL: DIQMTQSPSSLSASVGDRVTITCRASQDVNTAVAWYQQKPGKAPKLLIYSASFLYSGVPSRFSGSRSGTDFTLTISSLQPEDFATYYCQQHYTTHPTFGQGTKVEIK
notes: IgG
B7: MYT4518 (antibody, V domains shown)
VH: B1 VH
VL: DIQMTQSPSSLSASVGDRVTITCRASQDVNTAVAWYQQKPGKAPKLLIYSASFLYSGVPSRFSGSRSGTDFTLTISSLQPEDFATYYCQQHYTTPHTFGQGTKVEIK
notes: IgG
B8: MYT4519 (antibody, V domains shown)
VH: B1 VH
VL: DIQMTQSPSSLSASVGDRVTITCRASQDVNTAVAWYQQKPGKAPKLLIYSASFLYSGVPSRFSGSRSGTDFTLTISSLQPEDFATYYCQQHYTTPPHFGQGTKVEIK
notes: IgG
B9: MYT2185 (antibody, V domains shown)
VH: EVQLVESGGGVVQPGRSLRLSCSASHFTFSGYGLSWVRQAPGKGLEWVAMISSGGSYTYYADSVKGRFAISRDNAKNTLFLQMDSLRPEDTGVYFCARHGDDPAWFAYWGQGTPVTVSS
VL: DIQLTQSPSSLSASVGDRVTITCSVSSSISSNNLHWYQQKPGKAPKPWIYGTSNLASGVPSRFSGSGSGTDYTFTISSLQPEDIATYYCQQWSSYPYMYTFGQGTKVEIK
notes: IgG
B10: MYT2186 (antibody, V domains shown)
VH: B9 VH with H26G, F27H
VL: B9 VL
notes: IgG
B11: MYT2187 (antibody, V domains shown)
VH: B9 VH with H26G, T28H
VL: B9 VL
notes: IgG
B12: MYT2188 (antibody, V domains shown)
VH: B9 VH with H26G, F29H
VL: B9 VL
notes: IgG
B13: MYT2189 (antibody, V domains shown)
VH: B9 VH with H26G, S30H
VL: B9 VL
notes: IgG
B14: MYT2190 (antibody, V domains shown)
VH: B9 VH with H26G, G31H
VL: B9 VL
notes: IgG
B15: MYT2191 (antibody, V domains shown)
VH: B9 VH with H26G, Y32H
VL: B9 VL
notes: IgG
B16: MYT2192 (antibody, V domains shown)
VH: B9 VH with H26G, G33H
VL: B9 VL
notes: IgG
B17: MYT2193 (antibody, V domains shown)
VH: B9 VH with H26G, L34H
VL: B9 VL
notes: IgG
B18: MYT2198 (antibody, V domains shown)
VH: B9 VH with H26G, S53H
VL: B9 VL
notes: IgG
B19: MYT2199 (antibody, V domains shown)
VH: B9 VH with H26G, G54H
VL: B9 VL
notes: IgG
B20: MYT2201 (antibody, V domains shown)
VH: B9 VH with H26G, S56H
VL: B9 VL
notes: IgG
B21: MYT2202 (antibody, V domains shown)
VH: B9 VH with H26G, Y57H
VL: B9 VL
notes: IgG
B22: MYT2203 (antibody, V domains shown)
VH: B9 VH with H26G, T58H
VL: B9 VL
notes: IgG
B23: MYT2204 (antibody, V domains shown)
VH: B9 VH with H26G, Y59H
VL: B9 VL
notes: IgG
B24: MYT2205 (antibody, V domains shown)
VH: B9 VH with H26G, Y60H
VL: B9 VL
notes: IgG
B25: MYT2206 (antibody, V domains shown)
VH: B9 VH with H26G, A61H
VL: B9 VL
notes: IgG
B26: MYT2207 (antibody, V domains shown)
VH: B9 VH with H26G, D62H
VL: B9 VL
notes: IgG
B27: MYT2208 (antibody, V domains shown)
VH: B9 VH with H26G, S63H
VL: B9 VL
notes: IgG
B28: MYT2209 (antibody, V domains shown)
VH: B9 VH with H26G, V64H
VL: B9 VL
notes: IgG
B29: MYT2210 (antibody, V domains shown)
VH: B9 VH with H26G, K65H
VL: B9 VL
notes: IgG
B30: MYT2211 (antibody, V domains shown)
VH: B9 VH with H26G, G66H
VL: B9 VL
notes: IgG
B31: MYT2214 (antibody, V domains shown)
VH: B9 VH with H26G, H99A
VL: B9 VL
notes: IgG
B32: MYT2216 (antibody, V domains shown)
VH: B9 VH with H26G, D101H
VL: B9 VL
notes: IgG
B33: MYT2218 (antibody, V domains shown)
VH: B9 VH with H26G, P103H
VL: B9 VL
notes: IgG
B34: MYT2220 (antibody, V domains shown)
VH: B9 VH with H26G, W105H
VL: B9 VL
notes: IgG
B35: MYT2222 (antibody, V domains shown)
VH: B9 VH with H26G, A107H
VL: B9 VL
notes: IgG
B36: MYT2223 (antibody, V domains shown)
VH: B9 VH with H26G, Y108H
VL: B9 VL
notes: IgG
B37: MYT4520 (antibody, V domains shown)
VH: B9 VH with H26G
VL: B9 VL with S27H
notes: IgG
B38: MYT4521 (antibody, V domains shown)
VH: B9 VH with H26G
VL: B9 VL with S28H
notes: IgG
B39: MYT4522 (antibody, V domains shown)
VH: B9 VH with H26G
VL: B9 VL with I29H
notes: IgG
B40: MYT4523 (antibody, V domains shown)
VH: B9 VH with H26G
VL: B9 VL with S30H
notes: IgG
B41: MYT4524 (antibody, V domains shown)
VH: B9 VH with H26G
VL: B9 VL with S31H
notes: IgG
B42: MYT4526 (antibody, V domains shown)
VH: B9 VH with H26G
VL: B9 VL with N33H
notes: IgG
B43: MYT4527 (antibody, V domains shown)
VH: B9 VH with H26G
VL: B9 VL with L34H
notes: IgG
B44: MYT4528 (antibody, V domains shown)
VH: B9 VH with H26G
VL: B9 VL with H35A
notes: IgG
B45: MYT4529 (antibody, V domains shown)
VH: B9 VH with H26G
VL: B9 VL with G51H
notes: IgG
B46: MYT4530 (antibody, V domains shown)
VH: B9 VH with H26G
VL: B9 VL with T52H
notes: IgG
B47: MYT4531 (antibody, V domains shown)
VH: B9 VH with H26G
VL: B9 VL with S53H
notes: IgG

molecular target: T1, FOLR1 (R&D Systems, Cat #5646-FR) (human, UniProt P15328 25-233); assay: BLI, IgG on anti-human Fc sensor, 50 nM FOLR1
T1 construct: Bought soluble protein; also called Folate Receptor 1
T1 sequence (P15328 25-233 limits assumed): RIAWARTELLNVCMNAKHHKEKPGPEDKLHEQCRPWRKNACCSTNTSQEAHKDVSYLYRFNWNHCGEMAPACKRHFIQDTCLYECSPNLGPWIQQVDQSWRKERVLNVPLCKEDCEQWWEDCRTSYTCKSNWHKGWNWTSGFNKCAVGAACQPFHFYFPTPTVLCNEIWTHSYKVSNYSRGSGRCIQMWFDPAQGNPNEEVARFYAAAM

Binding result, binds:
B1
B2
B3
B4
B5
B6
B7
B8
B9
B10
B11
B12
B13
B14
B15
B16
B17
B18
B19
B20
B21
B22
B23
B24
B25
B26
B27
B28
B29
B30
B31
B32
B33
B34
B35
B36
B37
B38
B39
B40
B41
B42
B43
B44
B45
B46
B47
